The pKd is −log10 of the Kd, conventionally taken in molar units. The pIC50 is −log10 of the IC50, conventionally taken in molar units. A lower pIC50 goes with a large IC50.

For 42 sequences, Kd and IC50 results are on record in the Immune Epitope Database (IEDB).

pIC50, pKd: −log10 of the molar value.

Test [1] deals with HLA-A*02:02. Briefly: IEDB peptide-MHC binding, purified MHC/competitive/radioactivity; filed as Kd, often an IC50 or EC50 that approximates it; ≥ and ≤ were set here for values at or beyond the usual limits of such assays.
In test [2] the target is HLA-A*02:03. Described as above.
The target in test [3] is HLA-A*02:06. The description is as above.
Test [4] deals with HLA-A*02:01. Briefly: IEDB peptide-MHC binding, purified MHC/competitive/fluorescence; ≥ and ≤ were set here for values at or beyond the usual limits of such assays.
In test [5] the target is HLA-A*03:01. Put plainly: IEDB peptide-MHC binding, purified MHC/direct/fluorescence; filed as Kd, often an IC50 or EC50 that approximates it; ≥ and ≤ were set here for values at or beyond the usual limits of such assays. To be noted: source organism: Vibrio cholerae.
[6] abbreviates: source organism: Vaccinia virus WR.
The mark [7] stands for this setting: source organism: Lymphocytic choriomeningitis virus (strain Armstrong).
Setting [8] is: source organism: SARS coronavirus Tor2.
Where [9] appears, read: source organism: Mycobacterium tuberculosis.
The mark [10] stands for this setting: source organism: Zaire ebolavirus.
Where [11] appears, read: source organism: Mammarenavirus machupoense.

Turning to LMIGNYFSGV, the pKd in test [1] (setting [6]) was 9.90; in test [2] (setting [6]) it was 10.03; in test [3] (setting [6]) it was 9.88.

KLASAIQKA: the pKd in test [2] (source organism: Dengue virus 2 Jamaica/1409/1983) was 7.75.

Turning to MSCDDVVFGI, the pKd in test [1] (setting [7]) is 5.98; in test [2] (setting [7]), 4.92; in test [3] (setting [7]), 6.60.

With VIVENDNVI, the figures for the pKd in test [1] (setting [6]), in test [2] (setting [6]) and in test [3] (setting [6]) were 4.81, 4.71 and 5.14, respectively.

In test [4] (source organism: Variola virus), YGTLIIDEV had a pIC50 of 5.48.

Take LTGNNTITT: the pKd in test [1] (setting [6]) was 5.24; in test [2] (setting [6]), 5.25; in test [3] (setting [6]), 5.06.

With AVITETIPI, the pKd in test [1] (setting [6]) was 6.49; in test [2] (setting [6]), 7.37; in test [3] (setting [6]), 8.19.

Turning to ALIARCWYL, the pKd is 9.71 in test [1] (setting [8]), 7.77 in test [2] (setting [8]) and 9.01 in test [3] (setting [8]).

Consider FTNSQIFNI, for which the figures for the pKd in test [1] (setting [6]), in test [2] (setting [6]) and in test [3] (setting [6]) were 8.16, 8.15 and 8.32, respectively.

As for STAEQLSKYV, the pKd in test [1] (setting [6]) is 5.97; in test [2] (setting [6]) it was 5.73; in test [3] (setting [6]), 6.16.

As to LLALGCYSQV, in test [2] (source organism: Dengue virus 1 Brazil/97-11/1997), the pKd was 7.90.

On to LMSFTILCL, for which the figures for the pKd in test [1] (setting [8]), in test [2] (setting [8]) and in test [3] (setting [8]) were 9.57, 7.79 and 8.74, respectively.

Regarding KLQERLAKL, the pIC50 in test [4] (setting [9]) was 7.00.

As to FTILEYLYI, the values for the pKd in test [1] (setting [6]), in test [2] (setting [6]) and in test [3] (setting [6]) were 5.81, 6.77 and 6.57, respectively.

FVTDYVHEGV: the figures for the pKd in test [1] (setting [6]), in test [2] (setting [6]) and in test [3] (setting [6]) were 7.62, 8.77 and 7.97, respectively.

Take HLRASTTENA: the figures for the pKd in test [1] (setting [6]), in test [2] (setting [6]) and in test [3] (setting [6]) were 6.31, 7.42 and not above 4.16, respectively.

Regarding YISRDELWA, the pKd in test [1] (setting [6]) is 6.48; in test [2] (setting [6]) it was 6.62; in test [3] (setting [6]), 5.92.

With NTIAVITETI, the negative-log Kd (pKd) in test [1] (setting [6]) was 7.30; in test [2] (setting [6]) it was 7.25; in test [3] (setting [6]), 6.11.

With TAGNKVDVDI, the figures for the pKd in test [1] (setting [6]), in test [2] (setting [6]) and in test [3] (setting [6]) were 4.96, 5.46 and not above 4.42, respectively.

ETKRNIARHL: the pKd in test [1] (setting [6]) is not above 4.30; in test [2] (setting [6]) it was 4.91; in test [3] (setting [6]) it was not above 4.16.

Consider DTDIVNNFI, for which the figures for the pKd in test [1] (setting [6]), in test [2] (setting [6]) and in test [3] (setting [6]) were 5.03, 4.71 and 4.80, respectively.

As for YIEDELRRAA, the values for the pKd in test [1] (setting [6]), in test [2] (setting [6]) and in test [3] (setting [6]) were 6.20, 6.78 and 6.69, respectively.

NLAPHLLLIV: the pKd in test [1] (setting [8]) was 8.29; in test [2] (setting [8]) it was 8.97; in test [3] (setting [8]), 6.90.

On to MKDEPVVFS, for which the pIC50 in test [4] (setting [10]) was not above 3.38.

Turning to SSWAVHWFS, the values for the pKd in test [1] (setting [11]), in test [2] (setting [11]) and in test [3] (setting [11]) were 5.33, not above 4.11 and not above 4.33, respectively.

AKAIITPIV gave a pIC50 in test [4] (source organism: Vaccinia virus Copenhagen) not above 3.83.

For the sequence LTTLATIST, in test [4] (setting [10]), the pIC50 was 5.12.

For the sequence GLFGKGGVV, the pKd in test [2] (source organism: Dengue virus 4 Philippines/H241/1956) is 8.00.

In turn, RNLNVTTQS showed a pIC50 in test [4] (source organism: Vaccinia virus) not above 3.25.

As for SAIALGVAT, the pIC50 in test [4] (setting [10]) is not above 3.62.

RTWKVLSIMA: the pKd in test [1] (setting [6]) is not above 4.62; in test [2] (setting [6]), 5.22; in test [3] (setting [6]), 5.24.

LSARHASGK had a pKd in test [5] of 6.90.

ASDTPSATT gave a pIC50 in test [4] (setting [10]) not above 3.21.

KLAGGVAVI gave a pIC50 in test [4] (setting [9]) of 6.92.

In the case of TQWSLFFFV, the pKd in test [1] (setting [8]) is 7.10; in test [2] (setting [8]) it was 6.27; in test [3] (setting [8]), 9.09.

As to YALEPRKEI, the values for the pKd in test [1] (setting [6]), in test [2] (setting [6]) and in test [3] (setting [6]) were 5.43, 5.15 and 5.39, respectively.

As for KISVEKIKQT, the pKd is 5.91 in test [1] (setting [6]), 5.05 in test [2] (setting [6]) and not above 4.68 in test [3] (setting [6]).

As to DTCLLAISAV, the pKd was 5.61 in test [1] (setting [6]), 7.03 in test [2] (setting [6]) and 6.97 in test [3] (setting [6]).

As to WIPYFGPGA, the pIC50 in test [4] (source organism: Sudan ebolavirus) was 5.84.

Regarding HAKYMVTDKT, the pKd is 5.04 in test [1] (setting [6]), not above 4.46 in test [2] (setting [6]) and not above 4.19 in test [3] (setting [6]).

Regarding GMQFDKVYL, the pKd in test [1] (setting [6]) is 7.87; in test [2] (setting [6]) it was 6.56; in test [3] (setting [6]), 5.72.

Take GLCNYGGIL: the pKd is 7.01 in test [1] (setting [6]), 6.90 in test [2] (setting [6]) and 5.87 in test [3] (setting [6]).
